Results published in the supplement of paper PMC9170038.

The sequences below were run on MS2 coat protein (assay: apparent KD of MS2 coat protein, switch ON state; designed switch direction (-1 OFF switch, 1 ON switch): 1; higher = weaker reporter binding). Conditions: FMN input: 0 or 200 uM; Eterna round: R93 (includes R88 designs).
In short: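 Each design's apparent KD comes from the median of binding-curve fits to its normalised clusters. Those clusters carried RNA switches transcribed on-chip from Illumina sequencing clusters. SNAP-549-labelled MS2 coat protein was titrated onto them in twofold steps (0.7 or 1.5 nM to 3 µM; per step 0.8–1.5 h down to 10–20 min). Conditions were 100 mM Tris-HCl pH 7.5, 80 mM KCl, 4 mM MgCl2, without or with constant ligand.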

| Sequence | apparent KD of MS2 coat protein [nM] |
| --- | --- |
| AAAAAAAAAAGUGAGGAUAUGUGAUCGGUGACAUGAGGAUCACCCAUGUGAGGCCUUCGGGCCAAGCAGAAGGUAUAAAAAAAAA [Same State 2-VII] | 105 |
| AAAGUACAUGAGGAUCACCCAUGUUGGAACAAAGCAGGAUAUGUACAAAAGGAAAUAAAUACAGAAGGGCUAAGAA [Same State #2] | 20 |
| AGAAAUAAAAUGGAGGAUAUCCAAAAGAAAACAUGAGGAUCACCCAUGUAAAAGAAAAUAAAAUGGGAGAAGGCCAAAAAUAAAG | 23 |
| GAAAUAAAAACACAGGAUAUCCAAAAGAAAACAUGAGGAUCACCCAUGUAAAGAAAAUAAAAAUGGGAGAAGGGUGAAAAUAAAG [Mat - Same State 2 - JL mod - D25] | 26.4 |
| AAAAAACAUGAGGAUCACCCAUGUAAUUAAAACGCAGGAUAUAGAAAAAAAAAAAUGUUACUAGAAGGGUGAAAAA ['Same State 1'] | 113 |
| AAAAAACAUGAGGAUCACCCAUGUGAAAAAAUCGCAGGAUAUCCCUUUUUUAAAUGGGAGGGAGAAGGGUGAAAAA [Nob's Hobby 15 - Jieux - Same State 1] | 40.3 |
| AAGAAACAUGAGGAUCACCCAUGUAGAAAUAUGGGAGGAUAUACGAAGACGAAAGUCGAAGUAGAAGGCCUAAGAA [Mat - Same State 1 - Meechl mod - D131] | 15.1 |
| UUUAGGAAGAGAGAGGAUAUCCAAAGGAAAACAUGAGGAUCACCCAUGUAAAAGGUAGGAAAUUGGGAGAAGGCUCAAGAGAGAG [salish99-ss2-078] | 5.84 |
| AAGAAACAUGAGGAUCACCCAUGUGAUAAUAUGGGAGGAUAUACAAAGACGAAAGUCGAAGUAGAAGGCCUAUGAA [Garnet 43] | 36.8 |
| AUAAAAUACUGUGAGGAUAUCCAUAAUAAAACAUGAGGAUCACCCAUGUGUAGAUAAUAAUAAUGGGAGAAGGCACAUAAUAAUA [Mat - Same state - Mayanna Mod - D101] | 15.7 |
| GAAAAACAUGAGGAUCACCCAUGUAGAAAUAUGGGAGGAUAUACAAAGUGGAAAGACAAAGUAGAAGGCCUAAAAG [Garnet 25] | 35.6 |
| CAUCAUGCGCCUAAGGAUAUGUCUCACAAGACAUGAGGAUCACCCAUGUAGAAUAAAUAAAUGAUGCAGAAGGUGGAGUGCAUGC [Rierre] | 72.1 |
| ACAAAACAUGAGGAUCACCCAUGUCAAGCUAAUCAAGGAUAUGGGAGCGGUCCGGUGCGAUCAGAAGGUGAUUAGA [Gecelear] | 99 |
| AAAAGACAUGAGGAUCACCCAUGUCAAGACGUAGGAGGAUAUGUCGUGAAAAAAGACUUGGCAGAAGGCCUGUGUC [SS1 - 41] | 15 |
| GGGAGACAUGAGGAUCACCCAUGUGAGAAGAGGCGAGGAUAUCGAAAGAAAGAAGAGAAACGAGAAGGCGCGAGGG [salish99-SS1-059] | 57.4 |
| CCCAAUGCAACGAAGGAUAUCCGUCAUGCCACAUGAGGAUCACCCAUGUACUGGCGGCACAAGACGGAGAAGGUCGGGUGCUGUG [Quenrean] | 9.4 |
| CAACAGAGAGGACAGGAUAUGUCGUGAUAAACAUGAGGAUCACCCAUGUGAGACAUCACGUAGUCGCAGAAGGGUCCCGUCUUAC [Esleerandi] | 15.3 |

| Sequence | apparent KD of MS2 coat protein [nM] |
| --- | --- |
| AACAAUCUAUCUGAGGAUAUAUGUCAAAAGACAUGAGGAUCACCCAUGUAAAAACAUGAAAAAUAAUAGAAGGCAGAUAGAUUGA [SS2: 1140] | 59.9 |
| AAUCCAACUAGUCAGGAUAUCAGGCGUAAGACAUGAGGAUCACCCAUGUACUUAGUACAAGUAACUGAGAAGGGACAGGGUGACC [JR_SS002_Sub409] | 75.4 |
| AUAAAACAUGAGGAUCACCCAUGUAGAAAUAUGGGAGGAUAUACAAAGACGAAAGUCGAAGUAGAAGGCCUAAAAG [Mat - Same State 1 - Meechl mod - D117] | 27.4 |
| CGAAAGGAGAGAGAGGAUAUCCAAAGGAAAACAUGAGGAUCACCCAUGUAGAAGGUAGGAGAUUGGGAGAAGGCUCAAGAGAUAU [salish99-ss2-153] | 20 |
| CGAAAGGAGAGAGAGGAUAUCCAAAGGAAAACAUGAGGAUCACCCAUGUAGAAGGUAGGAGAUUGGGAGAAGGCUCAAGAGAGCU [salish99-ss2-152] | 30.5 |
| GAAAAACAUGAGGAUCACCCAUGUGAGAACAUGGGAGGAUAUACGAGGACGAAAGUCAAAGUAGAAGGCCUAAGAG [Garnet 86] | 164 |
| AAAAGACAUGAGGAUCACCCAUGUAAAAACAUAGGAGGAUAUGUCGUGAAAAAAGACUUGGCAGAAGGCCUUUGUC [SS1 - 45] | 48.1 |
| ACAAAACAUGAGGAUCACCCAUGUCAGAAAUGGCAAGGAUAUAGAAAACAAAAACAAAAACUAGAAGGUGCAAAAC [Meechl SS1 R2 m3] | 84.8 |
| AUUUUACAUGAGGAUCACCCAUGUUUUGGUGGAUCAGGAUAUAAAUUGAAUGAGUUUUAGUUAGAAGGGAUAUAUA [JR_SS001_Sub505] | 78.4 |
| GAUAGACAUGAGGAUCACCCAUGUAGAAUUAUGGGAGGAUAUACAAAGACGAGAGUCAGAGUAGAAGGCCUAGGAG [salish99-ss1-158] | 28.1 |
| AAAAAAAAAGUAGAGGAUAUCCGAGUGGUAACAUGAGGAUCACCCAUGUGAAGAAAGGAAGAUGAGGAGAAGGCUACAAAAAAAAA [Mat - Mod of Nando] | 21.2 |
| GGGAGACAUGAGGAUCACCCAUGUGAGAAGAGGCGAGGAUAUCGAAAGAAAGAAGAGAAACGAGAAGGCGCGAGUU [salish99-SS1-054] | 35 |
| AAAGACAUAGUUCAGGAUAUGGUAAUAGUCACAUGAGGAUCACCCAUGUUCAUUUAUAUGAGCGAUCAGAAGGGAGGUAAAAAAA [SameState2 Malc#15] | 182 |
| GGAAAGAAAAGCGAGGAUAUGCUAGGUAAUACAUGAGGAUCACCCAUGUUUUUUUUUAACAAAUUGCAGAAGGCGCAAGAAAGAAA [Ungainly] | 16.5 |
| CAUCAUGCGCCUAAGGAUAUGUCUCACAAGACAUGAGGAUCACCCAUGUAUAAUAAAUAAAUGAUGCAGAAGGUGGAGUGCAUGC [Latibe] | 87.7 |
| GAAGACAUAGUUCAGGAUAUGGGAAUAGUCACAUGAGGAUCACCCAUGUGCAUUUAUAUGCGCGCUCAGAAGGGAGGUAGAUAAU [Mat - Same state - Malcolm Mod - D118] | 26.9 |
